Source: patent US20100272709A1 (GENERAL HOSPITAL, published 2010)

Molecular target: T1, EYFP-dynK694A fusion (UniProt Q05193 1-864)
T1 construct: also called YFP-K694A; not shown: EYFP tag
T1 sequence (looked up): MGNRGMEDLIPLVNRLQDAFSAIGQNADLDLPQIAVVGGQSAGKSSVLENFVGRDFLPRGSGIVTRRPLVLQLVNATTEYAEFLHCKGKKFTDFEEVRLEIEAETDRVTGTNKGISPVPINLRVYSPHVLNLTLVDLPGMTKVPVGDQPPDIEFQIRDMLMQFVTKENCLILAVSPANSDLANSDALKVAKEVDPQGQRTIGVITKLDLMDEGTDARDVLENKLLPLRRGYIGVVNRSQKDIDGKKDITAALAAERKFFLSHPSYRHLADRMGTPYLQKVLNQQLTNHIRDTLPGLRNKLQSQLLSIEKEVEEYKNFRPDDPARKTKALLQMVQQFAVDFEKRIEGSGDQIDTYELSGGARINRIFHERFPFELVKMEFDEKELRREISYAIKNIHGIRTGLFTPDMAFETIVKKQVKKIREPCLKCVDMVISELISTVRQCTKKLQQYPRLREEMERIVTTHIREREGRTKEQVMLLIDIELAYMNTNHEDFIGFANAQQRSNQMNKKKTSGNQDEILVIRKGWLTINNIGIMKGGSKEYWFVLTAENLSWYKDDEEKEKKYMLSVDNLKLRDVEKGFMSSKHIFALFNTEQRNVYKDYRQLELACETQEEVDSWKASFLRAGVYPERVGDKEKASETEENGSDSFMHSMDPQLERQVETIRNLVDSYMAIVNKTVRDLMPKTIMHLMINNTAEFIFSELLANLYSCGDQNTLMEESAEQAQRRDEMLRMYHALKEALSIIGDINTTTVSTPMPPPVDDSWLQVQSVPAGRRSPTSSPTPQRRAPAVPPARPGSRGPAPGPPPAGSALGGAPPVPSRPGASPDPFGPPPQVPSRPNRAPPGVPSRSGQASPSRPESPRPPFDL
Test: FLIM/FRET in live COS cells; lifetime of the ECFP donor; self-assembly

B1: ECFP-dynK694A fusion (other, UniProt Q05193 1-864, looked up)
chain: MGNRGMEDLIPLVNRLQDAFSAIGQNADLDLPQIAVVGGQSAGKSSVLENFVGRDFLPRGSGIVTRRPLVLQLVNATTEYAEFLHCKGKKFTDFEEVRLEIEAETDRVTGTNKGISPVPINLRVYSPHVLNLTLVDLPGMTKVPVGDQPPDIEFQIRDMLMQFVTKENCLILAVSPANSDLANSDALKVAKEVDPQGQRTIGVITKLDLMDEGTDARDVLENKLLPLRRGYIGVVNRSQKDIDGKKDITAALAAERKFFLSHPSYRHLADRMGTPYLQKVLNQQLTNHIRDTLPGLRNKLQSQLLSIEKEVEEYKNFRPDDPARKTKALLQMVQQFAVDFEKRIEGSGDQIDTYELSGGARINRIFHERFPFELVKMEFDEKELRREISYAIKNIHGIRTGLFTPDMAFETIVKKQVKKIREPCLKCVDMVISELISTVRQCTKKLQQYPRLREEMERIVTTHIREREGRTKEQVMLLIDIELAYMNTNHEDFIGFANAQQRSNQMNKKKTSGNQDEILVIRKGWLTINNIGIMKGGSKEYWFVLTAENLSWYKDDEEKEKKYMLSVDNLKLRDVEKGFMSSKHIFALFNTEQRNVYKDYRQLELACETQEEVDSWKASFLRAGVYPERVGDKEKASETEENGSDSFMHSMDPQLERQVETIRNLVDSYMAIVNKTVRDLMPKTIMHLMINNTAEFIFSELLANLYSCGDQNTLMEESAEQAQRRDEMLRMYHALKEALSIIGDINTTTVSTPMPPPVDDSWLQVQSVPAGRRSPTSSPTPQRRAPAVPPARPGSRGPAPGPPPAGSALGGAPPVPSRPGASPDPFGPPPQVPSRPNRAPPGVPSRSGQASPSRPESPRPPFDL
notes: also called CFP-K694A; not shown: ECFP tag
With B1 the “Mean Lifetime (γ1) ps” value was 1300 ps.
